From patent EP1694709B1 (Fraunhofer-Gesellschaft zur Förderung der angewandten …, dated 2010) come the findings set out here.

For experiment [1], the target named is CD64 (human) (UniProt P12314). As to the kind of experiment: cell-based or functional assay.
In experiment [2] the target is CD64 (human) (UniProt P12314).
Another experiment deals with CD64 (human, UniProt P12314 16-374). As to the kind of experiment: cell-based or functional assay.

In the experiment with CD64 (human) [1], m22(scFv)2-ETA' returned an IC50 of growth inhibition (XTT-based colorimetric assay) on HL-60 cells of 0.0117 µg/mL and an IC50 of growth inhibition (XTT-based colorimetric assay) on U937 cells of 0.0135 µg/mL.
Consider moAb m22 (antibody), for which the % inhibition of m22(scFv)-ETA' binding with CD64 (human) [2] stood at 70%.

B1: m22(scFv)-ETA' (scFv)
chain 1: QVQLVESGGGVVQPGRSLRLSCSSSGFIFSDNYMYWVRQAPGKGLEWVATISDGGSYTYYPDSVKGRFTISRDNSKNTLFLQMDSLRPEDTGVYFCARGYYRYEGAMDYWGQGTPVTVSS
chain 2: DIQLTQSPSSLSASVGDRVTITCKSSQSVLYSSNQKNYLAWYQQKPGKAPKLLIYWASTRESGVPSRFSGSGSGTDFTFTISSLQPEDIATYYCHQYLSSWTFGQGTKLEIK
On to B1, for which, in the experiment with CD64, the “IC50 of growth inhibition (XTT-based colorimetric assay) on HL-60 cells” value was found to be 0.0116 µg/mL and the “IC50 of growth inhibition (XTT-based colorimetric assay) on U937 cells” value stood at 0.0129 µg/mL.
